The values below come from patent US20170052184A1 (published 2017).

Residue numbers refer to the chain shown, from its start.

For assay [1], the target named is T1, HCV Core1-169 recombinant antigen (hepatitis C virus (HCV-1), UniProt P26664 1-169).
T1 sequence: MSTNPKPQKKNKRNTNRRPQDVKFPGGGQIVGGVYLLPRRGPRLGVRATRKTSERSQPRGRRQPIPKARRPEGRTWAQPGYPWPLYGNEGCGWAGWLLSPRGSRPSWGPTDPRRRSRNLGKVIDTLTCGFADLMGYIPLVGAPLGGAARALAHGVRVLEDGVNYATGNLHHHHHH
The assay is described as follows: sandwich EIA, 25 ng/ml core1-169; capture mAb C11-9.

The target in assay [2] is T1, HCV Core1-169 recombinant antigen. Briefly: sandwich EIA, 25 ng/ml core1-169; capture mAb 208B-1096.
For assay [3] the target is unchanged. The assay is described as follows: sandwich EIA, 25 ng/ml core1-169; capture mAb 208B-612-226.
For assay [4] the target is unchanged. Briefly: sandwich EIA, 25 ng/ml core1-169; capture mAb 208A-110.
Assay [5] has the same target. Briefly: sandwich EIA, 25 ng/ml core1-169; capture NC capture mAb.
Assay [6] has the same target. The assay is described as follows: sandwich EIA, 25 ng/ml core1-169; capture mAb 208A-557.
The target is the same in assay [7]. Briefly: sandwich EIA, 25 ng/ml core1-169; capture mAb 208B-741.
For assay [8] the target is unchanged. Briefly: sandwich EIA, 25 ng/ml core1-169; capture mAb 208B-395-334.
The target is the same in assay [9]. The assay is described as follows: sandwich EIA, 25 ng/ml core1-169; capture mAb 208A-293.
The target is the same in assay [10]. The assay is described as follows: sandwich EIA, 25 ng/ml core1-169; capture mAb 208A-692.
Assay [11] shares this target. Briefly: sandwich EIA, 25 ng/ml core1-169; capture mAb 208A-207-271.
Assay [12] has the same target. Briefly: sandwich EIA, 25 ng/ml core1-169; capture mAb C11-7.
Assay [13] has as its target T2, HCV Core1-169 (HCV-1, UniProt P26664 1-169).
T2 construct: also called recombinant HCV core antigen
T2 sequence: T1 sequence
The assay is described as follows: EIA, core1-169 coated on plate.

Assay [14] has as its target T2, HCV Core1-169. The assay is described as follows: EIA, core1-169 captured by mAb 14-153-229.

B1: HCV 208A-692 monoclonal antibody (antibody, V domains shown)
VH: QGQMQQSGAELAKPGASVKLSCKTSGFTFSSSYISWLKQKPGQSLEWIAWIFAGTGNTNYNQKFTDKAQLTVDTSSSTAYMQLSSLTTEDSAIYYCAISGTGFTYWGQGTLVTVSA
VL: EVLMTQSPLSLPVSLGDQASISCRSSQSLEHSNGNTYLEWFLQRPGQPPKLLIYKVSSRFSGVPDRFSGSGSGTDFTLKISRVEAEDLGVYYCFQGSHVPFTFGSGTKLAIKR
Regarding B1, the OD492 nm in assay [1] stood at 2.66 OD492; in [2], 0.38 OD492; in assay [3], 0.37 OD492; in [4], 0.54 OD492; in [5], 0.4 OD492; in assay [6] it was 0.53 OD492. Further, the OD492 nm was 0.44 OD492 in assay [7]; 0.44 OD492 in assay [8]; 0.51 OD492 in assay [9]; 0.35 OD492 in assay [10]; 0.39 OD492 in assay [11]; 2.92 OD492 in assay [12].

B2: HCV 208B-793 (antibody, V domains shown)
VH: EVKLVESGGGLVQPGGSLKLSCAASGFTFSSYAMSWVRQTPERRLEWVTYISNGGGSTYYSDTVKGRFTFSRDNAKNTLYLQMSSLKSEDTAMYYCARHGLGRTGFASWGQGTLVTVSA
VL: DIVMTQSHKFMSTSVGDRVSITCKASQDVGTAVAWYQQKPGQSPKLLIYWASTRHTGVPDRFTGSGSGTDFTLTISNVQSEDLADYFCQQYSNYLTFGAGTKLEVKR
For the molecule B2, the “OD (A492)” value in the assay with HCV Core1-169 [13] turned out to be 0.85 OD; with HCV Core1-169 [14], 0.17 OD.

B3: HCV 208B-826 (antibody, V domains shown)
VH: DVQLVESGGGLVQAGGSRKLSCAASGFPFSSFGMHWVRQAPEKGLEWVASISSRTSKIYYADNLKGRFTISRDNPKNTLFLQMTSLGSEDTAMYYCVRSVFGNSYWFFDVWGAGTTVTVSS
VL: DIVLTQSPATLSVTPGDRVSLSCRASQRIYNYLHWYQQKSHESPRLLTKYASQSISGIPSRFSGSGSGTDFILTINSVETEDFGMYFCQQSNSWPLTFGAGTKLELRR
Consider B3, for which the “OD (A492)” value was found to be 0.65 OD with HCV Core1-169 [13] and 0.72 OD with HCV Core1-169 [14].

B4: HCV 208A-207 (antibody, V domains shown)
VH: QGQLQQPGAEFVKPGASLKLSCRASGYTFTSYWIHWVKQRPGQGLEWIGEIDPSDSYINQNQKFRGKATLTVDKSSSTAYMELSGLTSEDSAVYYCARHYYGVLDSWGQGTTLTVSS
VL: B3 VL
For B4, the results for the “OD (A492)” value with HCV Core1-169 [13] and in the assay with HCV Core1-169 [14] were 0.11 OD and 0.41 OD, respectively.

B5: HCV 208B-672 (antibody, V domains shown)
VH: EVKLVESGGSLVQPGGSLKLSCAASGFNFNTYAMSWVRQTPEKRLEWVAYISNGGGNTYYVDTVKGRFTISRDNAKNTLYLRMSSLKSEDTAMYYCARHGLYWGYSMDYWGQGTSVTVSS
VL: DIQMTQSPSSLSASLGERVSLTCRASQDIGGSINWLQQEPDGTIKRLIYATSSLDSGVPKRFSGSRSGSDYSLTISSLESEDFVDYYCLQYASSPPTFGGGTKLEIKR
On to B5, for which the “OD (A492)” value is 1.77 OD in the assay with HCV Core1-169 [13] and 0.99 OD with HCV Core1-169 [14].

B6: HCV 208A-110 monoclonal antibody (antibody, V domains shown)
VH: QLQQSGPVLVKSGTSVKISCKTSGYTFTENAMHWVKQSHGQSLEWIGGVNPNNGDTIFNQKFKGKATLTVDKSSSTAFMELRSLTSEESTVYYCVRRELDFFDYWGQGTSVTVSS
VL: DIVLTQSPASLAVSLGQRATISCRASQSVSTSRYSYMHWYQQKPGQPPKLLIKYASNLESGVPARFSGSGSGTDFTLNIHPVAEEDTAAYYCQHSWEFPFTFGSGTKLEIKR
As for B6, the OD492 nm in assay [1] worked out at 0.13 OD492; in [2], 0.21 OD492; in [3], 0.2 OD492; in [4] it was 0.18 OD492; in assay [5], 0.15 OD492; in [6], 0.17 OD492. The OD492 nm turned out to be 0.2 OD492 in assay [7]; 0.22 OD492 in [8]; 0.2 OD492 in assay [9]; 0.14 OD492 in assay [10]; 0.17 OD492 in [11]; 0.18 OD492 in assay [12].

B7: HCV 208A-293 monoclonal antibody (antibody, V domains shown)
VH: EVQLQQSGPELVKPGASVKISCKASGFTFTEYAMHWMKQSHGKSLEWIGGINPTNGDAIYNQKFKDKAKLTVDRSSSTAYMELRSLTSDDSALFYCARRELDYFPSWGQGTTLTVSS
VL: B6 VL with A12I, Y34F, M37V, Y40I, A64V, T76I, A83E, A89T, Y91F
Consider B7, for which the OD492 nm in [1] was 2.6 OD492; in assay [2], 0.41 OD492; in [3], 0.37 OD492; in [4], 0.52 OD492; in assay [5], 0.37 OD492; in assay [6], 0.52 OD492. For the same molecule, the OD492 nm in assay [7] worked out at 0.5 OD492; in [8], 0.44 OD492; in assay [9] it was 0.49 OD492; in assay [10], 0.34 OD492; in [11], 0.39 OD492; in assay [12], 2.87 OD492.

B8: HCV 208A-557 monoclonal antibody (antibody, V domains shown)
VH: B1 VH with A12V, F52Y
VL: B6 VL with V3A, K49E, A83G, A89T, E97D
For B8, the OD492 nm in [1] amounted to 0.14 OD492; in assay [2] it was 0.35 OD492; in [3] it was 0.25 OD492; in assay [4], 0.44 OD492; in assay [5], 0.18 OD492; in assay [6] it was 0.32 OD492. The OD492 nm is 0.38 OD492 in [7]; 0.28 OD492 in [8]; 0.41 OD492 in assay [9]; 0.13 OD492 in assay [10]; 0.18 OD492 in assay [11]; 0.22 OD492 in assay [12].

B9: HCV 208A-210 (antibody, V domains shown)
VH: QVQLQQSGPELVKPGASMRISCKASGYTFTSYYVHWIKQRPGQGLEWIGCIYPGDVNTDYNEKFKGKATLTADKSSSTAYMQVSTLTSEDSAIYFCVLYYYGSFAYWGQGTLVTVSA
VL: EIVLTQSPAITAASLGQNVTITCRASSSVSYMHWYRQKSGTSPQLWIYEISRRASGVPARFRASGSGTSYSLTISSMEAEDAAIYYCQQWNYPLTFGAGTKLEVKR
In the case of B9, the “OD (A492)” value in the assay with HCV Core1-169 [13] and in the assay with HCV Core1-169 [14] was 0.87 OD each time.

B10: HCV 208B-612 (antibody, V domains shown)
VH: EVQLQQSGPELVKPGASVKMSCKASGYRFTSYVMHWVRQKPGQGLEWIGYIDPHNDDTKYSEKFRGKATLTSDKSSTTAYMELSSLTSEDSAVYYCVRYSYDRDYSPMDYWGQGTSVTVSS
VL: QIVLTQSPTLMSASPGEKVTMTCSASSTVTYIYWYQQKPGSSPRLWMYDTFNLVSGVPARFSGSRSGTSYFLTISSMEGEDAATYYCQQYSDSPYTFGGGTKLEIKR
As to B10, the results for the “OD (A492)” value with HCV Core1-169 [13] and in the assay with HCV Core1-169 [14] were 0.18 OD and 1.2 OD, respectively.

B11: HCV 208B-911 (antibody, V domains shown)
VH: QVHLQQPGAELVRPGVSVKLSCKASGYTFTTYSINWMKQRPGQGLEWIGNIYPSTSHTNYNQKFRDKATMTVDKSSSTAYMQLSSPTSEDSAVYYCTINAYSMDYWGQGTSVTVSS
VL: QIVLTQSPEIMSASPGEKVTITCSASSSVSFMYWFQQKPGTSPKLWIYITSNLASGVPTRFSGSGSGTSYSLTISRMEAEDAATYYCQQRSSFPYTFGGGTKLEMKR
As for B11, the “OD (A492)” value came out at 1.18 OD with HCV Core1-169 [13] and 0.14 OD with HCV Core1-169 [14].

B12: HCV 208B-822 (antibody, V domains shown)
VH: QVQLKQSGPGLVQPSQSLSITCTVSGFSLITYGVHWVRQSPGKGLEWLGVIWGGGSTGYNAAFVSRLNITKDNSKSQVFFKMNSLQPDDTAIYYCARNGGATVFDYWGQGTTLTVSS
VL: DIVMTQSPATLSVTPGDRVSLSCRASQTISDYLHWYQQKSHESPRLLIKYASQSISGIPSRFSGSGSGSHFTLSINSVEPEDVGVYYCQNGHSFPWTFGGGTKLEIKR
Take B12: the “OD (A492)” value with HCV Core1-169 [13] amounted to 0.22 OD; with HCV Core1-169 [14], 0.12 OD.
